# System: PFEK-protease C-E-6XHIS zymogen
# Sequence (chain, as listed by the source): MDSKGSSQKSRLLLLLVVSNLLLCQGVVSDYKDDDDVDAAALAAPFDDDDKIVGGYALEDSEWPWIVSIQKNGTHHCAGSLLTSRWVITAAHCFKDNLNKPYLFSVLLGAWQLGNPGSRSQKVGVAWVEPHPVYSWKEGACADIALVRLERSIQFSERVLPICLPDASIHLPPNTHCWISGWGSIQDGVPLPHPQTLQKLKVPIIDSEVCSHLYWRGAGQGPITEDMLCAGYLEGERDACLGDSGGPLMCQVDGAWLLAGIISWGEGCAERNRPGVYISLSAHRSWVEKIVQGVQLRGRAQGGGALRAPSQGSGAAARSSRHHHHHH
substance,measurement,value
enterokinase,cleavage of the zymogen (SDS-PAGE and anti-FLAG Western blot),This demonstrates the quantitative cleavage of the expressed and purified zymogen to generate the processed and activated protease

# From patent US20020164767
